Test results from PMC5603729 (Cell Reports, 2017).

T1: S. cerevisiae Rrp45 (subunit of the crystallised Exo-9) (S. cerevisiae, UniProt Q05636 1-305)
T1 sequence: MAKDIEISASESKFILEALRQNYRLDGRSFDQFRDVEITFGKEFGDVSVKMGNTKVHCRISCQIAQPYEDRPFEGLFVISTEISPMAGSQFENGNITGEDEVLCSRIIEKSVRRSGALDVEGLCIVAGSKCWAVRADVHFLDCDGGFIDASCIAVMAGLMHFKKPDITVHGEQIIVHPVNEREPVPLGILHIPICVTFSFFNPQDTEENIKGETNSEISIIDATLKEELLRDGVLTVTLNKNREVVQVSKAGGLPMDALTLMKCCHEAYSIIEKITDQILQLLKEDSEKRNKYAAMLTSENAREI


How the values were obtained:
[1] = target: T1, S. cerevisiae Rrp45 (subunit of the …); test: crystal structure
[2] = target: S. cerevisiae Exo-9 core complex (recombinant, untagged) (S. cerevisiae, UniProt P46948;Q12277;P25359;Q05636;P53256;P48240;P38792;Q08285;P53859); test: MST

binding result [1]	Kd [2]	Binder
binds	–	S. cerevisiae Rrp40 (subunit of the crystallised Exo-9) (natural protein) MSTFIFPGDSFPVDPTTPVKLGPGIYCDPNTQEIRPVNTGVLHVSAKGKSGVQTAYIDYSSKRYIPSVNDFVIGVIIGTFSDSYKVSLQNFSSSVSLSYMAFPNASKKNRPTLQVGDLVYARVCTAEKELEAEIECFDSTTGRDAGFGILEDGMIIDVNLNFARQLLFNNDFPLLKVLAAHTKFEVAIGLNGKIWVKCEELSNTLACYRTIMECCQKNDTAAFKDIAKRQFKEILTVKEE
–	~82 nM	Mpp6^FL S184C labeled with red-maleimide (natural protein, cysteine-reactive fluorophore (red-maleimide) on the introduced cysteine 184) MSANNGVTGKLSSRVMNMKFMKFGKTDDEESSNSNTPSNINSDVEPIEQKGKLFGLDDSAWDLNSYKDDLKKISGKEKKKVKRVVYKKRPNLIISNVGYSELRKPEGVISGRKTFGDNSDDSGSRKRKFDEGEQNEDEKRDAKDKEFTGSQDDGEDEYDLDKLFKDSIKKKKTNHNGKNKNRNCKK
